Measurements: the supplement of paper PMC10567573

B1: FBXO39 (parent)
chain: PSRVHASEVESAVWYVKKFGRYLE

Variants of: B1
Test: protein stability index of a GFP-peptide fusion (GPS, HEK-293T) (PSI 1-6); higher = more stable
Settings: c terminus: a fixed tail appended
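Also: lentivirally expressed fusions sorted by FACS into six bins by GFP to DsRed ratio, PSI derived from sequencing read proportions per bin multiplied by bin number.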

Variant	protein stability index
PSRVHASRVESAVWYVKKFGRYLE [E8R]	3.41
PSRVHASHVESAVWYVKKFGRYLE [E8H]	2.38
PSRVHASKVESAVWYVKKFGRYLE [E8K]	2.76
PSRVHASGVESAVWYVKKFGRYLE [E8G]	1.7
PSRVHASAVESAVWYVKKFGRYLE [E8A]	3.81
PSRVHASYVESAVWYVKKFGRYLE [E8Y]	3.1
PSRVHASWVESAVWYVKKFGRYLE [E8W]	1.42
PSRVHASFVESAVWYVKKFGRYLE [E8F]	4.46
PSRVHASCVESAVWYVKKFGRYLE [E8C]	2.27
PSRVHASIVESAVWYVKKFGRYLE [E8I]	2.11
PSRVHASQVESAVWYVKKFGRYLE [E8Q]	1.85
PSRVHASVVESAVWYVKKFGRYLE [E8V]	1.46
PSRVHASSVESAVWYVKKFGRYLE [E8S]	1.68
PSRVHASMVESAVWYVKKFGRYLE [E8M]	3.03
PSRVHASTVESAVWYVKKFGRYLE [E8T]	1.7
PSRVHASPVESAVWYVKKFGRYLE [E8P]	2.75
PSRVHASDVESAVWYVKKFGRYLE [E8D]	2.08
PSRVHASNVESAVWYVKKFGRYLE [E8N]	1.56
PSRVHASLVESAVWYVKKFGRYLE [E8L]	2.36
PSRVHQSEVESAVWYVKKFGRYLE [A6Q]	2.11
PSRVHHSEVESAVWYVKKFGRYLE [A6H]	1.76
PSRVHGSEVESAVWYVKKFGRYLE [A6G]	1.97
PSRVHSSEVESAVWYVKKFGRYLE [A6S]	2.72
PSRVHKSEVESAVWYVKKFGRYLE [A6K]	1.79

Variant	protein stability index
PSRVHDSEVESAVWYVKKFGRYLE [A6D]	2.46
PSRVHYSEVESAVWYVKKFGRYLE [A6Y]	1.58
PSRVHPSEVESAVWYVKKFGRYLE [A6P]	1.82
PSRVHRSEVESAVWYVKKFGRYLE [A6R]	1.56
PSRVHESEVESAVWYVKKFGRYLE [A6E]	2.32
PSRVHCSEVESAVWYVKKFGRYLE [A6C]	2.08
PSRVHMSEVESAVWYVKKFGRYLE [A6M]	1.27
PSRVHFSEVESAVWYVKKFGRYLE [A6F]	3.3
PSRVHTSEVESAVWYVKKFGRYLE [A6T]	2.4
PSRVHVSEVESAVWYVKKFGRYLE [A6V]	1.7
PSRVHLSEVESAVWYVKKFGRYLE [A6L]	2.24
PSRVHNSEVESAVWYVKKFGRYLE [A6N]	1.74
PSRVHISEVESAVWYVKKFGRYLE [A6I]	2.06
PSRVHWSEVESAVWYVKKFGRYLE [A6W]	2.48
PSRVHALEVESAVWYVKKFGRYLE [S7L]	1.64
PSRVHAIEVESAVWYVKKFGRYLE [S7I]	1.84
PSRVHAEEVESAVWYVKKFGRYLE [S7E]	2.09
PSRVHANEVESAVWYVKKFGRYLE [S7N]	2.12
PSRVHAKEVESAVWYVKKFGRYLE [S7K]	1.67
PSRVHAQEVESAVWYVKKFGRYLE [S7Q]	2.36
PSRVHAYEVESAVWYVKKFGRYLE [S7Y]	2.4
PSRVHAWEVESAVWYVKKFGRYLE [S7W]	1.59
PSRVHAREVESAVWYVKKFGRYLE [S7R]	1.48
PSRVHAVEVESAVWYVKKFGRYLE [S7V]	2.13

Variant	protein stability index
PSRVHAPEVESAVWYVKKFGRYLE [S7P]	2.33
PSRVHADEVESAVWYVKKFGRYLE [S7D]	2.68
PSRVHAGEVESAVWYVKKFGRYLE [S7G]	1.66
PSRVHAMEVESAVWYVKKFGRYLE [S7M]	1.81
PSRVHATEVESAVWYVKKFGRYLE [S7T]	1.77
PSRVHACEVESAVWYVKKFGRYLE [S7C]	1.48
PSRVHAHEVESAVWYVKKFGRYLE [S7H]	2.24
PSRVHAFEVESAVWYVKKFGRYLE [S7F]	1.97
PSRVHAAEVESAVWYVKKFGRYLE [S7A]	2.22
PSRVHASEWESAVWYVKKFGRYLE [V9W]	1.61
PSRVHASEIESAVWYVKKFGRYLE [V9I]	2.01
PSRVHASESESAVWYVKKFGRYLE [V9S]	2.62
PSRVHASEEESAVWYVKKFGRYLE [V9E]	3.31
PSRVHASEKESAVWYVKKFGRYLE [V9K]	1.92
PSRVHASEQESAVWYVKKFGRYLE [V9Q]	2.35
PSRVHASENESAVWYVKKFGRYLE [V9N]	2.56
PSRVHASETESAVWYVKKFGRYLE [V9T]	2.33
PSRVHASEFESAVWYVKKFGRYLE [V9F]	1.62
PSRVHASEHESAVWYVKKFGRYLE [V9H]	2.29
PSRVHASERESAVWYVKKFGRYLE [V9R]	2.34
PSRVHASEDESAVWYVKKFGRYLE [V9D]	2.96
PSRVHASELESAVWYVKKFGRYLE [V9L]	1.83
PSRVHASEPESAVWYVKKFGRYLE [V9P]	2.33
PSRVHASECESAVWYVKKFGRYLE [V9C]	2.48

Variant	protein stability index
PSRVHASEGESAVWYVKKFGRYLE [V9G]	3.35
PSRVHASEAESAVWYVKKFGRYLE [V9A]	2.09
PSRVHASEMESAVWYVKKFGRYLE [V9M]	1.92
PSRVDASEVESAVWYVKKFGRYLE [H5D]	2.52
PSRVNASEVESAVWYVKKFGRYLE [H5N]	2.36
PSRVVASEVESAVWYVKKFGRYLE [H5V]	1.68
PSRVSASEVESAVWYVKKFGRYLE [H5S]	2.05
PSRVKASEVESAVWYVKKFGRYLE [H5K]	1.4
PSRVWASEVESAVWYVKKFGRYLE [H5W]	2.86
PSRVIASEVESAVWYVKKFGRYLE [H5I]	1.39
PSRVMASEVESAVWYVKKFGRYLE [H5M]	1.86
PSRVRASEVESAVWYVKKFGRYLE [H5R]	1.36
PSRVYASEVESAVWYVKKFGRYLE [H5Y]	1.43
PSRVQASEVESAVWYVKKFGRYLE [H5Q]	2.69
PSRVAASEVESAVWYVKKFGRYLE [H5A]	2.11
PSRVLASEVESAVWYVKKFGRYLE [H5L]	2.49
PSRVEASEVESAVWYVKKFGRYLE [H5E]	3.31
PSRVPASEVESAVWYVKKFGRYLE [H5P]	2
PSRVGASEVESAVWYVKKFGRYLE [H5G]	2.26
PSRVTASEVESAVWYVKKFGRYLE [H5T]	1.43
PSRVFASEVESAVWYVKKFGRYLE [H5F]	2.02
PSRVCASEVESAVWYVKKFGRYLE [H5C]	1.61
